Reference: patent US12686846B2, “Plant sweet and yeast MSF transporter capable of transporting different sugars simultaneously” (THE BOARD OF TRUSTEES OF THE UNIVERSITY OF ILLINOIS, priority 2020, dated 2026)
Where “and” joins values, the source holds several entries; their conditions need not be identical. Equal entries are not always repeated. Entries after “also recorded” stand apart in the source; their conditions may differ.

Assays:
[1] = system: SR8D8 expressing transporter; experiment: Glucose and xylose mixed sugar flask fermentation (20 g/L each); assay type: cell-based, S. cerevisiae; details: 20 g/L of glucose and xylose, YP medium
Procedure: (§1) For flask fermentation, a single colony was inoculated to 5 or 25 mL YPE ([…], 1% w/v yeast extract, 2% peptone, 5% ethanol) supplemented with 200 μg/ml of geneticin to obtain seed cultures. […] Flask fermentations were maintained at 30° C. and 250 rpm.
(§2) A xylose fermenting S. cerevisiae yeast (SR8) with HXT1-7Δ, GAL2Δ deletions was used for transporter screening and characterization (SR8D8). SR8D8 was grown in YPE medium/plate (10 g/L yeast extract, 20 g/L peptone, and 5 g/L ethanol). […] SRD8 strains transformed with plasmid containing KanMX marker conferring resistance to G418 (geneticin) were propagated on YPE supplemented with 200 μg/ml of geneticin. For growth and flask fermentation experiments all media was supplemented with 200 μg/ml of geneticin for plasmid maintenance. Biomass was calculated from the OD600 measured using a Biomate 5 UV-visible spectrophotometer (Fisher, NY, USA). All growth rates were measured using a Bioscreen C plate reader system (Growth Curves USA, Piscataway, NJ, USA). A 2 μL inoculum of fully grown culture was added into 200 μL YP (+200 μg/ml Geneticin) with varying concentrations of different sugars. A wide band filter (420-580 nm) was used to measure optical density. Bioscreen C values represent mean value from three biological replicates. In all cases, the Bioscreen C was set to maintain a temperature of 30° C. and high aeration through high continuous shaking.

[2] = system: SR8D8 expressing transporter; experiment: Transporter screening for growth on glucose or xylose (Bioscreen C); assay type: cell-based, S. cerevisiae; details: glucose or xylose containing medium, OD600
Procedure: ScGal2 expressing SR8D8 were used as a positive control (FIG. 3). Most of the AtSWEETs and putative oleaginous transporters expressing strains were not able to grow on glucose or xylose.
as §2

[3] = substrate: OC[C@H]1OC(O)[C@H](O)[C@@H](O)[C@@H]1O; experiment: cells, lysate or membranes; details: other: initial glucose uptake (5 s), 30° C., pH 6.5, 0.2 to 100 mM glucose, ± SEM in Table 1
[4] = system: transporter-overexpressing SR8D8; experiment: Inhibition of xylose uptake by glucose; assay type: cell-based, S. cerevisiae; details: 25 mM or 100 mM glucose
Procedure: SR8D8 containing the respective plasmid was grown on selective YPE medium to an OD600 of 1-1.5, harvested by centrifugation, and washed twice in ice-cold uptake buffer (100 mM potassium phosphate, pH 6.5). C14 labeled sugar uptake assay was done according to Boles and Oreb. Radioactivity was analyzed in a Beckman-Coulter LS6500 multi-purpose liquid scintillation counter (Beckman-Coulter, CA, USA).
Sugar solutions contained 0.135-0.608 μCi of D-[U-^14C]-glucose (290-300 mCi/mmol) or D-[1-^14C]-xylose (55 mCi/mmol) (PerkinElmer, MA, USA). Calculation of Km (Michaelis constant), Vmax (maximal initial uptake velocity), and K (inhibitor constant for competitive inhibition) was done by nonlinear regression analysis and global curve fitting in Prism 7 (GraphPad Software) with values of three independent measurements.

[5] = system: SR8D8 expressing transporter; experiment: Mixed sugar fermentation at industrially relevant sugar concentrations; assay type: cell-based, S. cerevisiae; details: 7% glucose and 4% xylose (70 g/L, 40 g/L)
Procedure: as §1

[6] = system: SR8D8 expressing transporter; experiment: Sole glucose or xylose flask fermentation; assay type: cell-based, S. cerevisiae
Procedure: as §1, §2

B1: AtSWEET5: Arabidopsis thaliana SWEET5 transporter polypeptide (protein, UniProt Q9FM10 1-240, looked up)
Bidirectional sugar …: MTDPHTARTIVGIVGNVISFGLFCAPIPTMVKIWKMKSVSEFKPDPYVATVLNCMMWTFYGLPFVQPDSLLVITINGTGLFMELVYVTIFFVFATSPVRRKITIAMVIEVIFMAVVIFCTMYFLHTTKQRSMLIGILCIVFNVIMYAAPLTVMKLVIKTKSVKYMPFFLSLANFMNGVVWVIYACLKFDPYILIPNGLGSLSGIIQLIIYITYYKTTNWNDDDEDKEKRYSNAGIELGQA
In the case of B1, the “glucose and xylose mixed sugar fermentation phenotype” value [1] is reported as “simultaneously utilize glucose and xylose” and the “growth / transport capacity on glucose or xylose” value (shortened to “growth / transport capacity”) [2] is reported as “capable of sustaining an efficient growth on glucose or xylose”.

B2: Lipomyces starkeyi LST1_205437 transporter, wild type, SEQ ID NO: 4 (Lipomyces starkeyi NRRL Y-11557) (protein)
chain: MGFLGFLNRSQASEPVEKESTATTPSEGRTPQRPLSPAVGVPLEQDFETQLSAKDAPLLAFILGGVASVGGFMFGYQTGQISGFLEMSDFKTRFAACNSQTGQCTFSAARQGTIVGLFSIGTLIGSLIAAPIADRIGRRLTISFWAFFFMIGTVLEISSSHVWVQFAMGRFVGGLGIGALSVVVPMYQSESTPRMIRGVIVSSYQLMVTLGIWLAYMINWGTESLQGSQSWRITNGMSFLWALVLGIAILGLPESPRYAYRVGREEEARKNMARLYKLSPNHPIINLEIQEIQEKLDAERVGGDHPWYEIFTGPRMLYRTILGMVLQAGQQLTGANYFFYYGTTVFSATGLSNSYVTQIILGSVNVGGTIAGLWLIENCGRRKALMGGAAWMFMCFMVFAFVGHFSLDHQNPEATPQAGAALVVFSCLFIIAFAMTWGPIVWAIVGELYPARYRATCMGLATSSNWLFNFLIGFFTTFITGDIDYLYGLVFAGCCFALFFIVYFFVIETKGRSLEEIDTMYVLHVNPINSAKWDSSQLMRDGDGLVNTDDLYLEAGGNRFAKDEHSAHEMIPSHDENAPGPSHTSHADIEKAESSGAESRDAL
Work on B2 yielded a Km [3] of 4975 µM and a Vmax [3] of 46.89 nmol/min/mg.

B3: AtSWEET4: Arabidopsis thaliana SWEET4 transporter polypeptide (protein, UniProt Q944M5 1-251, looked up)
Bidirectional sugar …: MVNATVARNIAGICGNVISLFLFLSPIPTFITIYKKKKVEEYKADPYLATVLNCALWVFYGLPMVQPDSLLVITINGTGLAIELVYLAIFFFFSPTSRKVKVGLWLIGEMVFVGIVATCTLLLFHTHNQRSSFVGIFCVIFVSLMYIAPLTIMSKVIKTKSVKYMPFSLSLANFLNGVVWVIYALIKFDLFILIGNGLGTVSGAVQLILYACYYKTTPKDDEDEEDEENLSKVNSQLQLSGNSGQAKRVSA
For B3, the “glucose and xylose mixed sugar fermentation phenotype” value [1] was “co-consumption of glucose and xylose with a faster glucose consumption rate than that of xylose; also recorded: co-fermentation with glucose preference”, the “glucose and xylose mixed sugar fermentation phenotype” value ([1]; listed as SWEET4) was “simultaneously utilize glucose and xylose” and the “growth / transport capacity” value [2] was “substantial growth on xylose and glucose; also recorded: both glucose and xylose transport capacity”. For the same molecule, the “growth / transport capacity” value ([2]; listed as SWEET4) was “capable of sustaining an efficient growth on glucose or xylose”.

B4: Saccharomyces cerevisiae ScGal2 (Gal2) transporter, SEQ ID NO:32 (Saccharomyces cerevisiae S288C) (protein)
chain: MAVEENNMPVVSQQPQAGEDVISSLSKDSHLSAQSQKYSNDELKAGESGSEGSQSVPIEIPKKPMSEYVTVSLLCLCVAFGGFMFGWDTGTISGFVVQTDFLRRFGMKHKDGTHYLSNVRTGLIVAIFNIGCAFGGIILSKGGDMYGRKKGLSIVVSVYIVGIIIQIASINKWYQYFIGRIISGLGVGGIAVLCPMLISEIAPKHLRGTLVSCYQLMITAGIFLGYCTNYGTKSYSNSVQWRVPLGLCFAWSLFMIGALTLVPESPRYLCEVNKVEDAKRSIAKSNKVSPEDPAVQAELDLIMAGIEAEKLAGNASWGELFSTKTKVFQRLLMGVFVQMFQQLTGNNYFFYYGTVIFKSVGLDDSFETSIVIGVVNFASTFFSLWTVENLGHRKCLLLGAATMMACMVIYASVGVTRLYPHGKSQPSSKGAGNCMIVFTCFYIFCYATTWAPVAWVITAESFPLRVKSKCMALASASNWVWGFLIAFFTPFITSAINFYYGYVFMGCLVAMFFYVFFFVPETKGLSLEEIQELWEEGVLPWKSEGWIPSSRRGNNYDLEDLQHDDKPWYKAMLE
For B4, the Km [3] was 1613 µM and 1600 ± 200 µM.

B5: ScGal2: S. cerevisiae Gal2 hexose transporter, control; SEQ ID NO:32 (protein)
chain: MAVEENNMPVVSQQPQAGEDVISSLSKDSHLSAQSQKYSNDELKAGESGSEGSQSVPIEIPKKPMSEYVTVSLLCLCVAFGGFMFGWDTGTISGFVVQTDFLRRFGMKHKDGTHYLSNVRTGLIVAIFNIGCAFGGIILSKGGDMYGRKKGLSIVVSVYIVGIIIQIASINKWYQYFIGRIISGLGVGGIAVLCPMLISEIAPKHLRGTLVSCYQLMITAGIFLGYCTNYGTKSYSNSVQWRVPLGLCFAWSLFMIGALTLVPESPRYLCEVNKVEDAKRSIAKSNKVSPEDPAVQAELDLIMAGIEAEKLAGNASWGELFSTKTKVFQRLLMGVFVQMFQQLTGNNYFFYYGTVIFKSVGLDDSFETSIVIGVVNFASTFFSLWTVENLGHRKCLLLGAATMMACMVIYASVGVTRLYPHGKSQPSSKGAGNCMIVFTCFYIFCYATTWAPVAWVITAESFPLRVKSKCMALASASNWVWGFLIAFFTPFITSAINFYYGYVFMGCLVAMFFYVFFFVPETKGLSLEEIQELWEEGVLPWKSEGWIPSSRRGNNYDLEDLQHDDKPWYKAMLE
modifications: protein sequence alignmnet of ScGal2
For B5, the “inhibition of xylose transport by glucose (in words)” value [4] was “complete xylose inhibition even at the presence of 25 mM glucose”, the “glucose and xylose mixed sugar fermentation phenotype” value [1] was “sequential fermentation” and the “glucose and xylose mixed sugar fermentation phenotype” value ([1]; listed as GAL2) was “transport both glucose and xylose in a sequential manner; also recorded: sequential manner of sugar utilization”. The “mixed sugar utilization profile at high sugar” value [5] was “sequential utilization of glucose and xylose”.

B6: A175F: AtSWEET7 single mutation A175F (protein, UniProt Q8LBF7 1-258, looked up, variant A175F)
Bidirectional sugar …: MVFAHLNLLRKIVGIIGNFIALCLFLSPTPTFVRIVKKKSVEEYSPIPYLATLINCLVWVLYGLPTVHPDSTLVITINGTGILIEIVFLTIFFVYCGRQKQRLIISAVIAAETAFIAILAVLVLTLQHTTEKRTMSVGIVCCVFNVMMYASPLSVMKMVIKTKSVEFMPFWLSVFGFLNAGVWTIYALMPFDPFMAIPNGIGCLFGLAQLILYGAYYKSTKRIMAERENQPGYVGLSSAIARTGSEKTANTNQEPNNV
In the case of B6, the “glucose and xylose mixed sugar fermentation phenotype” value [1] is reported as “capable of improving glucose and xylose uptake rate”.

B7: AtSWEET1: Arabidopsis thaliana SWEET1 transporter polypeptide, SEQ ID NO:1 (protein)
chain: MNIAHTIFGVFGNATALFLFLAPSITFKRIIKNKSTEQFSGIPYPMTLLNCLLSAWYGLPFVSKDNTLVSTINGTGAVIETVYVLIFLFYAPKKEKIKIFGIFSCVLAVFATVALVSLFALQGNGRKLFCGLAATVFSIIMYASPLSIMRLVVKTKSVEFMPFFLSLFVFLCGTSWFVYGLIGRDPFVAIPNGFGCALGTLQLILYFIYCGNKGEKSADAQKDEKSVEMKDDEKKQNVVNGKQDLQV
modifications: Arabidopsis thaliana SWEET1 (AtSWEET1) transporter polypeptide
In the case of B7, the “glucose and xylose mixed sugar fermentation phenotype” value [1] is reported as “complete preference for glucose with negligible xylose consumption; also recorded: solo glucose fermentation”, the “sole sugar fermentation performance” value ([6]; glucose or xylose conditions, YP medium) is reported as “robust glucose fermentation but inefficient xylose fermentation” and the xylose consumption ([6]; xylose fermentation, within 50 h) is reported as 5 g/L. For the same molecule, the “growth / transport capacity” value [2] was “can sustain growth of SR8D8 in glucose and xylose containing medium; also recorded: glucose transporter with almost no xylose transport capacity”.

B8: F168A: AtSWEET1 single mutation F168A (protein, UniProt Q8L9J7 1-247, looked up, variant F168A)
Bidirectional sugar …: MNIAHTIFGVFGNATALFLFLAPSITFKRIIKNKSTEQFSGIPYPMTLLNCLLSAWYGLPFVSKDNTLVSTINGTGAVIETVYVLIFLFYAPKKEKIKIFGIFSCVLAVFATVALVSLFALQGNGRKLFCGLAATVFSIIMYASPLSIMRLVVKTKSVEFMPFFLSLAVFLCGTSWFVYGLIGRDPFVAIPNGFGCALGTLQLILYFIYCGNKGEKSADAQKDEKSVEMKDDEKKQNVVNGKQDLQV
For B8, the “glucose and xylose mixed sugar fermentation phenotype” value [1] was “capable of improving both glucose and xylose uptake rate”.
